Literature values as cited in PMC5896957.

Target: exon junction complex (Homo sapiens) (UniProt P38919)
UniProt P38919, sequence (P38919 2-411, chain 1 of 3): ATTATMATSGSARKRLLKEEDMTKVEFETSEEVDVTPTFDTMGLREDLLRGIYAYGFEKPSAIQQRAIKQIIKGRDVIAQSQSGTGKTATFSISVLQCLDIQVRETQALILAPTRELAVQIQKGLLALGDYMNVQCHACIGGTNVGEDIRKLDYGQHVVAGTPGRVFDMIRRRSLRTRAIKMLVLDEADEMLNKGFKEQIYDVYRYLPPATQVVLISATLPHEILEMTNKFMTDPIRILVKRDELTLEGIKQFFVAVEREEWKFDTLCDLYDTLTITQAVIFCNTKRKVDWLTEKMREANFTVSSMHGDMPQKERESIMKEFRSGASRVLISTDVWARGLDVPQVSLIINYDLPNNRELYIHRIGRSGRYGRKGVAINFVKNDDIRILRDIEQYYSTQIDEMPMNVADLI
UniProt P38919, sequence (B1ARP8 whole entry, chain 2 of 3, further chain): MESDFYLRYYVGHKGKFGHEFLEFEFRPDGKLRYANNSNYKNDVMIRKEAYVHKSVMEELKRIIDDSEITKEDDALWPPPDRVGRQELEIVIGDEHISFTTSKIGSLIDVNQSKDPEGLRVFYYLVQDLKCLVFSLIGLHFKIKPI
UniProt P38919, sequence (O15234 whole entry, chain 3 of 3, further chain): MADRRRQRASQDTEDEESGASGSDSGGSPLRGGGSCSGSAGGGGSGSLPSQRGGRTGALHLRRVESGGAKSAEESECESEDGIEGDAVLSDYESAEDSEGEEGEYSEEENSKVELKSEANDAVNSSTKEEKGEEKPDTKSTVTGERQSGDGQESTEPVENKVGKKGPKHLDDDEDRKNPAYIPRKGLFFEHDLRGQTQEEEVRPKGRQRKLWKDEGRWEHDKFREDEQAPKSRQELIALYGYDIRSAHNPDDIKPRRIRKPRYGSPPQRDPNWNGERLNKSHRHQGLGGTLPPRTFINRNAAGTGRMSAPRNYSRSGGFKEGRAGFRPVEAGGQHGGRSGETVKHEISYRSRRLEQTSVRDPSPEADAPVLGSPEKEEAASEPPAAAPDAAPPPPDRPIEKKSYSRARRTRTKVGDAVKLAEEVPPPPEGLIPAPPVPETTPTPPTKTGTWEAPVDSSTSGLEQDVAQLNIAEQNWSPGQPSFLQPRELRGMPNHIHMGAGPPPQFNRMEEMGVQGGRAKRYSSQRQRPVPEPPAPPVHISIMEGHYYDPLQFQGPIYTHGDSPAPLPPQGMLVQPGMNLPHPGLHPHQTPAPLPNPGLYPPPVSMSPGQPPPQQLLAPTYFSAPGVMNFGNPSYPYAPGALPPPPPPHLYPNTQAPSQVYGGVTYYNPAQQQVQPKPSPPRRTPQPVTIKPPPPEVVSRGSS

- Kd: 10 µM
Substance: UPF3B peptide (from UniProt Q9BZI7)
